Tests used:
[1] = biological target: ETE/P186G mutant (Staphylococcus aureus); assay: not stated; shown in Figure S5 (not shown); the methods tell SEC of ETE/P186G in 20 mM MES pH 7.0, 150 mM NaCl and BN-PAGE of peak fractions
[2] = biological target: Staphylococcus aureus exfoliative toxin E (Staphylococcus aureus); assay: SEC; Superdex G75 10/300 GL, 0.7 mL/min; several buffers, NaCl concentrations and pH values (among them 20 mM MES pH 7.0, 150 mM NaCl); BSA (~66 kDa) and bovine beta-trypsin (~24 kDa) as size controls; absorbance at 230 nm
[3] = biological target: Staphylococcus aureus exfoliative toxin E (Staphylococcus aureus); assay: native gel or EMSA; BN-PAGE 15%, 30 ug protein, running buffer 25 mM Tris pH 8.3, 192 mM glycine; BSA monomer and bovine beta-trypsin as markers; Coomassie stain
[4] = biological target: Staphylococcus aureus exfoliative toxin E (Staphylococcus aureus); assay: SAXS; 5 mg/mL ETE in 20 mM MES pH 7.0, 150 mM NaCl, 25 °C; pair distance distribution by indirect Fourier transform

Substance	stoichiometry N [1]	stoichiometry N [2]	stoichiometry N [3]	stoichiometry N [4]
ETE/P186G mutant (enzyme)	2			
Staphylococcus aureus exfoliative toxin E (enzyme)		2	2	2

Source: publication PMC9456352
